This note sets out measurements from article PMC3463355.

In general, Kd refers to the constant that tells how readily two partners part at equilibrium. Low values mean higher affinity, high ones lower affinity.

Data set [1] has as its target PARP-1 (full-length) (human, UniProt P09874 1-1014, V762A). Put plainly: HI-FI FRET.
Data set [2] has as its target N-parp (Zn1-Zn3 and BRCT) (UniProt P09874 1-486). Briefly: HI-FI FRET.

Sequence of PARP-1 (full-length) (P09874 whole entry V762A): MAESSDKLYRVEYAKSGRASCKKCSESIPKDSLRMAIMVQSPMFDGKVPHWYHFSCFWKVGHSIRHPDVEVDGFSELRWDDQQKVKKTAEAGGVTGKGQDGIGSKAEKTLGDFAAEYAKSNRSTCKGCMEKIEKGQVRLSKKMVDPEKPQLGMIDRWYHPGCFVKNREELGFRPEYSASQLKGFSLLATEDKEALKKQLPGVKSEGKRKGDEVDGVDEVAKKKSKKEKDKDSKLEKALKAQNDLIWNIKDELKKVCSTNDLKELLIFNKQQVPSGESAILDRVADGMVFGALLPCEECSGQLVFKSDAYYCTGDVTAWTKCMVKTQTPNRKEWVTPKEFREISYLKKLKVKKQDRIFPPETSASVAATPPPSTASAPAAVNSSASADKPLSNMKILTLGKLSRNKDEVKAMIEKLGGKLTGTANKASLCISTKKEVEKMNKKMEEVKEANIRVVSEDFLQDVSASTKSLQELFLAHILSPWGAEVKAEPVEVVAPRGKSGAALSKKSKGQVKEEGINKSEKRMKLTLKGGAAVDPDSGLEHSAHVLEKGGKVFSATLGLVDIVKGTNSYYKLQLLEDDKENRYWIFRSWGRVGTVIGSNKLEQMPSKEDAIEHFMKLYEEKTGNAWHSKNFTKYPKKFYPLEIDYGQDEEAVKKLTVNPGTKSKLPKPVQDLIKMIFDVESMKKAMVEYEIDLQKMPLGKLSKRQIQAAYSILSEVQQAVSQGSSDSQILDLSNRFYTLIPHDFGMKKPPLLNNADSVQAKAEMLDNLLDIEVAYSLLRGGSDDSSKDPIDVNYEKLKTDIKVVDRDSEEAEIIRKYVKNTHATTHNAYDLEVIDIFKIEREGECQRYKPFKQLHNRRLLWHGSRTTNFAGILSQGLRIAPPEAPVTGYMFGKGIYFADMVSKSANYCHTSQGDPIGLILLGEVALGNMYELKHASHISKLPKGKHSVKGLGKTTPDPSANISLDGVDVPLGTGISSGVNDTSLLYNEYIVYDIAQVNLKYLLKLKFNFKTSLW
Sequence of N-parp (Zn1-Zn3 and BRCT) (P09874 1-486): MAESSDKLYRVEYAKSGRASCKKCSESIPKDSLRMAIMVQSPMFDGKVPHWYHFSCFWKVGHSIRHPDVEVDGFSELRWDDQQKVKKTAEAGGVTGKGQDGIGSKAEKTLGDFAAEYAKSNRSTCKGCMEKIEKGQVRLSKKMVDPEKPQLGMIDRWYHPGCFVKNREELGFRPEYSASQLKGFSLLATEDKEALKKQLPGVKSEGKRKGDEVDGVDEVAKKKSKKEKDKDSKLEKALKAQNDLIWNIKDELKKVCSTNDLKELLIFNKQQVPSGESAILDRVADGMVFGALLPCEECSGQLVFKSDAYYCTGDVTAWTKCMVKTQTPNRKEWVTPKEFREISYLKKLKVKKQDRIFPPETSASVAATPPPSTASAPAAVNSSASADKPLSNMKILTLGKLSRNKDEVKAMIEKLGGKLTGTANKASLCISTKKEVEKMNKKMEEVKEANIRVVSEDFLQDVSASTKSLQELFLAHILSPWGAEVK

B1: 30Blunt (dsDNA)
DNA 1: ATCAGATAGCATCTGTGCGGCCGCTTAGGG
DNA 2: CCCTAAGCGGCCGCACAGATGCTATCTGAT
Consider B1, for which the Kd was determined as 31.7 ± 6.9 nM in data set [1] and 62.2 ± 10.2 nM in data set [2].

B2: 30AATT (dsDNA)
DNA 1: ATCAGATAGCATCAATTCGGCCGCTTAGGG
DNA 2: CCCTAAGCGGCCGAATTGATGCTATCTGAT
modifications: 4 central bp of 30Blunt (TGTG) replaced by AATT
As to B2, the Kd in data set [1] was determined as 8.5 ± 2.1 nM; in data set [2], 25.7 ± 0.9 nM.
